Measurements taken from patent US20240167070A1 (NANYANG TECHNOLOGICAL UNIVERSITY, published 2024).
Starred links: 1 amine or outer side, 2 acyl side, 3 side chain; linkers in the order of their positions; H or OH if unused. Non-standard residues stand in square brackets, D forms with d. Primed or numbered codes have the meaning given here. No end group written: not given here. Asn(OH)″ = N^γ-hydroxy-L-asparagine (L-aspartic acid β-hydroxamate), O=C(C[C@H](N[*:1])C(=O)[*:2])NO; Asn(OH) = N-gamma-hydroxy-L-asparagine, O=C(C[C@H](N[*:1])C(=O)[*:2])NO[*:3]

T1: matrix metalloprotease 2 (MMP2) (UniProt P08253 110-660, limits assumed)
T1 sequence (looked up): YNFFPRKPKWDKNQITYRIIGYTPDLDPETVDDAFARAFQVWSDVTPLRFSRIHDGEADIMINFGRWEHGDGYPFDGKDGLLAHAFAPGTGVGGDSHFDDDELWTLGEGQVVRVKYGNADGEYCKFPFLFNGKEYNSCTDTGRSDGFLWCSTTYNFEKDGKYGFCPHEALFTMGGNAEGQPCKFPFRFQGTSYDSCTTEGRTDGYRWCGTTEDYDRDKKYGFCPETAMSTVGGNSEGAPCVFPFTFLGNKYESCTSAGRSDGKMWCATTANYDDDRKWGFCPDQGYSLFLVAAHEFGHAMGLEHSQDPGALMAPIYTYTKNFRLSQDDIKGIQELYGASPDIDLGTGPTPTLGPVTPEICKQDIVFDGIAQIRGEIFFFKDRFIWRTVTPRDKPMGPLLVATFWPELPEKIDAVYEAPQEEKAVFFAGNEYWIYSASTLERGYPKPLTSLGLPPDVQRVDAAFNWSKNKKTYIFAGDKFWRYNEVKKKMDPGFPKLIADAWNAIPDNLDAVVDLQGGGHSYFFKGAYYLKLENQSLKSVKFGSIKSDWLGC

B1: β-amyloid precursor protein-derived inhibitory peptide (APP-IP) 8, ISYGNDALMP (peptide)
peptide: ISYGNDALMP-NH2
notes: Linear 10-mer; also called peptide 8; linear APP-IP 8
B2: cyclic MCoTI-II, [GGVCPKILKKCRRDSDCPGACICRGNGYCGSGSD] (peptide)
peptide: cyclo(GGVCPKILKKCRRDSDCPGACICRGNGYCGSGSD)
modifications: not fully specified (bridges); also: three disulfide bonds, pairing not given here
notes: also called MCoTI-II 20; cyclo-MCoTI-II
B3: Asn(OH)-APP-IP peptide 9, ISYGNN(OH)ALMP (peptide)
peptide: ISYGN[Asn(OH)″]ALMP-NH2
modifications: N-terminus assumed
SMILES: CC[C@H](C)[C@H](N)C(=O)N[C@@H](CO)C(=O)N[C@@H](Cc1ccc(O)cc1)C(=O)NCC(=O)N[C@@H](CC(N)=O)C(=O)N[C@@H](CC(=O)NO)C(=O)N[C@@H](C)C(=O)N[C@@H](CC(C)C)C(=O)N[C@@H](CCSC)C(=O)N1CCC[C@H]1C(N)=O
notes: Linear 10-mer; also called linear Asn(OH)-APP-IP peptide 9
B4: cyclo[ISYGQN(OH)ALMP] (peptide)
peptide: cyclo(ISYGQ[Asn(OH)″]ALMP)
SMILES: CC[C@H](C)[C@@H]1NC(=O)[C@@H]2CCCN2C(=O)[C@H](CCSC)NC(=O)[C@H](CC(C)C)NC(=O)[C@H](C)NC(=O)[C@H](CC(=O)NO)NC(=O)[C@H](CCC(N)=O)NC(=O)CNC(=O)[C@H](Cc2ccc(O)cc2)NC(=O)[C@H](CO)NC1=O
notes: also called peptide 10
B5: cyclo[SISYGQN(OH)ALMPG] (peptide)
peptide: cyclo(SISYGQ[Asn(OH)″]ALMPG)
SMILES: CC[C@H](C)[C@@H]1NC(=O)[C@H](CO)NC(=O)CNC(=O)[C@@H]2CCCN2C(=O)[C@H](CCSC)NC(=O)[C@H](CC(C)C)NC(=O)[C@H](C)NC(=O)[C@H](CC(=O)NO)NC(=O)[C@H](CCC(N)=O)NC(=O)CNC(=O)[C@H](Cc2ccc(O)cc2)NC(=O)[C@H](CO)NC1=O
B6: cyclo[SGISYGQN(OH)ALMPSG] (peptide)
peptide: cyclo(SGISYGQ[Asn(OH)″]ALMPSG)
SMILES: CC[C@H](C)[C@@H]1NC(=O)CNC(=O)[C@H](CO)NC(=O)CNC(=O)[C@H](CO)NC(=O)[C@@H]2CCCN2C(=O)[C@H](CCSC)NC(=O)[C@H](CC(C)C)NC(=O)[C@H](C)NC(=O)[C@H](CC(=O)NO)NC(=O)[C@H](CCC(N)=O)NC(=O)CNC(=O)[C@H](Cc2ccc(O)cc2)NC(=O)[C@H](CO)NC1=O
notes: also called peptide 12
B7: cyclo[…(OH)ALMPSGA] (peptide)
peptide: cyclo(GSGISYGQ[Asn(OH)]ALMPSGA)
SMILES: CC[C@H](C)[C@@H]1NC(=O)CNC(=O)[C@H](CO)NC(=O)CNC(=O)[C@H](C)NC(=O)CNC(=O)[C@H](CO)NC(=O)[C@@H]2CCCN2C(=O)[C@H](CCSC)NC(=O)[C@H](CC(C)C)NC(=O)[C@H](C)NC(=O)[C@H](CC(=O)NO)NC(=O)[C@H](CCC(N)=O)NC(=O)CNC(=O)[C@H](Cc2ccc(O)cc2)NC(=O)[C@H](CO)NC1=O
notes: also called peptide 13
B8: cyclo[…(OH)ALMPSGYM] (peptide)
peptide: cyclo(ATSGISYGQ[Asn(OH)]ALMPSGYM)
SMILES: CC[C@H](C)[C@@H]1NC(=O)CNC(=O)[C@H](CO)NC(=O)[C@H]([C@@H](C)O)NC(=O)[C@H](C)NC(=O)[C@H](CCSC)NC(=O)[C@H](Cc2ccc(O)cc2)NC(=O)CNC(=O)[C@H](CO)NC(=O)[C@@H]2CCCN2C(=O)[C@H](CCSC)NC(=O)[C@H](CC(C)C)NC(=O)[C@H](C)NC(=O)[C@H](CC(=O)NO)NC(=O)[C@H](CCC(N)=O)NC(=O)CNC(=O)[C@H](Cc2ccc(O)cc2)NC(=O)[C@H](CO)NC1=O
notes: also called peptide 14
B9: cyclo[…(OH)ALMPSGQYM] (peptide)
peptide: cyclo(ATRSGISYGQ[Asn(OH)″]ALMPSGQYM)
SMILES: CC[C@H](C)[C@@H]1NC(=O)CNC(=O)[C@H](CO)NC(=O)[C@H](CCCNC(=N)N)NC(=O)[C@H]([C@@H](C)O)NC(=O)[C@H](C)NC(=O)[C@H](CCSC)NC(=O)[C@H](Cc2ccc(O)cc2)NC(=O)[C@H](CCC(N)=O)NC(=O)CNC(=O)[C@H](CO)NC(=O)[C@@H]2CCCN2C(=O)[C@H](CCSC)NC(=O)[C@H](CC(C)C)NC(=O)[C@H](C)NC(=O)[C@H](CC(=O)NO)NC(=O)[C@H](CCC(N)=O)NC(=O)CNC(=O)[C@H](Cc2ccc(O)cc2)NC(=O)[C@H](CO)NC1=O
notes: also called peptide 15
B10: Asn(OH)-RTD1 17, cyclo[SYCN(OH)CLCRRGVCRCICTI] (peptide)
peptide: cyclo(SYC[Asn(OH)]CLCRRGVCRCICTI)
modifications: disulfide (positions not given here); not fully specified (bridges); printed as cyclo[SYCN(OH)CLCRRGVCRCICTI]; also: oxidatively folded disulfides, pairing not given here
notes: also called peptide 17; grafted peptide 17
B11: Asp-RTD-1 18, cyclo[SYCDCLCRRGVCRCICTI] (peptide)
peptide: cyclo(SYCDCLCRRGVCRCICTI)
modifications: disulfide (positions not given here); also: oxidatively folded, disulfide pairing not given here
notes: Obtained by NaIO4 oxidation of Asn(OH)-RTD-1 17; also called peptide 18
B12: Asn-RTD-1 19, cyclo[SYCNCLCRRGVCRCICTI] (peptide)
peptide: cyclo(SYCNCLCRRGVCRCICTI)
modifications: disulfide (positions not given here); also: oxidatively folded disulfides, pairing not given here
notes: also called peptide 19
B13: rhesus theta defensin-1 (RTD-1) 16, cyclo[GFCRCLCRRGVCRCICTR] (peptide)
peptide: cyclo(GFCRCLCRRGVCRCICTR)
modifications: disulfide (positions not given here); not fully specified; printed as cyclo[GFCRCLCRRGVCRCICTR]
notes: also called peptide 16; native RTD-1

How the values were obtained:
[1] = target: T1, matrix metalloprotease 2 (MMP2); experiment: cell-based or functional assay
[2] = target: T1, matrix metalloprotease 2 (MMP2); experiment: MMP2 FRET-substrate inhibition assay; Ki = IC50/(1+[S]0/Km)
Description: (§1) The inhibitory activity of the peptides was determined by measuring the MMPs' protease activity towards a FRET substrate. […] MMP2 was pre-incubated with the peptide inhibitors for 10 min before adding the substrate.

trypsin [3] = experiment: cell-based or functional assay
trypsin, sequence (P00760 24-246): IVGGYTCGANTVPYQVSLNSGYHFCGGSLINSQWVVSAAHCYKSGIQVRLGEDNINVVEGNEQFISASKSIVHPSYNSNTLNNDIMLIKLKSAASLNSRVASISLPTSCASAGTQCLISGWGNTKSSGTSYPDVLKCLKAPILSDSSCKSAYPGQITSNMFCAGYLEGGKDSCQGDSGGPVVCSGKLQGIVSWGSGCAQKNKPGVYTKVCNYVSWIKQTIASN

trypsin [4] = experiment: trypsin FRET-substrate inhibition assay; Ki = IC50/(1+[S]0/Km)
[5] = target: T1, matrix metalloprotease 2 (MMP2); experiment: MMP2 FRET-substrate inhibition assay
Description: as §1

[6] = target: T1, matrix metalloprotease 2 (MMP2); experiment: MMP2 and MMP9 FRET-substrate inhibition assays
Description: as §1

MMP9 = MMP9 (UniProt P14780 107-707, limits assumed); experiment: MMP9 FRET-substrate inhibition assay; Ki = IC50/(1+[S]0/Km)
MMP9, sequence (P14780 107-707 limits assumed): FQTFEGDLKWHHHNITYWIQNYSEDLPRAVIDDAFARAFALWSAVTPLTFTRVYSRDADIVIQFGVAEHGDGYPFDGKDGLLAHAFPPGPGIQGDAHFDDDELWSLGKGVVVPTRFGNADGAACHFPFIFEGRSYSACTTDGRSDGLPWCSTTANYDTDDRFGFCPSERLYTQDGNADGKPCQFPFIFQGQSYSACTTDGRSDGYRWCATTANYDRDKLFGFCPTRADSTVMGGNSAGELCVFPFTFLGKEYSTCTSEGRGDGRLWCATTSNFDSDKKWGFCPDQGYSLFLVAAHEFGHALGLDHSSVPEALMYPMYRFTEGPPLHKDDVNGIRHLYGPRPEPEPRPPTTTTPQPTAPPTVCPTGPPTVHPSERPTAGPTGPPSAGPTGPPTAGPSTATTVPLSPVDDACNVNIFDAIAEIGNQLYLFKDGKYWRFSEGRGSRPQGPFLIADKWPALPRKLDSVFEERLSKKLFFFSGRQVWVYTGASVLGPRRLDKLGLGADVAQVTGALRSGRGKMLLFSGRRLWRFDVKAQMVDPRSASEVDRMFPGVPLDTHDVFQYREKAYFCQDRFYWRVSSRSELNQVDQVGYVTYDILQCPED
Description: as §1

| Binder | IC50 [1] [µM] | Ki [2] [nM] | also measured |
| --- | --- | --- | --- |
| B1 | 0.092 | 60 | – |
| B2 | – | – | IC50 (trypsin [3]): 2.01 nM; Ki (trypsin [4]): 0.18 nM |
| B3 | 0.035 | 23 | fold improvement of inhibitory activity against APP-IP 8 [5]: 2.6 fold |
| B4 | 32.5 | 21300 | – |
| B5 | > 100 | – | – |
| B6 | 10.7 | 6980 | – |
| B7 | 18.4 | 12000 | – |
| B8 | 3.34 | 2180 | – |
| B9 | 0.354 | 231 | – |
| B10 | – | 2.8 | fold better binding affinity against Asn-RTD-1 19 [5]: 13 fold; fold better binding affinity against Asp-RTD-1 18 [5]: 2.3 fold; fold improvement of Ki against the linear Asn(OH)-APP-IP peptide 9 [5]: 8.2 fold; fold more potent towards MMP2 than MMP9 [6]: ~1000 fold; Ki (MMP9): 2.68 µM |
| B11 | – | 6.5 | Ki (MMP9): 3.29 µM |
| B12 | – | 36.5 | Ki (MMP9): 5.59 µM |
| B13 | – | 60 | – |
